The text below walks through data of patent CN106699884A (ZONHON BIOPHARMA INST INC; GENSUN INST BIOMEDICINE CO LTD, dated 2017).

For this assay, the target named is T1, 人C-反应蛋白 (human C-reactive protein, extracted from human plasma, HyTest) (human, UniProt P02741 19-224).
T1 construct: mature; Native protein from plasma; In the Western blot it was run on both non-denaturing and SDS gels; also called CRP; 天然CRP
T1 sequence (looked up): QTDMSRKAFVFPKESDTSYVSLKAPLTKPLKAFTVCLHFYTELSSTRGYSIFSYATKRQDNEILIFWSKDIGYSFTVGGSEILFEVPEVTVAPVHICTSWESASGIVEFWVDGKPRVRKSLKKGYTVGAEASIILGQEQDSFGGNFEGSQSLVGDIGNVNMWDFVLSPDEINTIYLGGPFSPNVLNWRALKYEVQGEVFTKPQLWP
Put plainly: Western blot, HRP-labelled scFv on native CRP from non-denaturing and SDS-PAGE gels.

B1: 单链抗体P20 (anti-human C-reactive protein scFv P20) (scFv)
scFv: EVMLVESGGGLVKPGGSLKLSCAASGFTFSSYAMSWVRQTPERRLEWVATISTSGSDRYYPDSVKWRFTISRDSAKNILYLQMSSLRSEDTAMYYCARRGWDYWGQGTSVTVSAGGGGSGGGGSGGGGSDVVMTQTPLSLPVSLGDQASISCRSSQSLVHSNGNTYLHWYLQKSGQSPKLLLYKVSNRFSGVSDRFSGSGSGTDFTLKISRVEAEDLGVYFCSQNTHVPPTFGGGTKLEIKR
notes: Recombinant scFv made in E. coli BL21(DE3) and purified on HisTrap HP; It was HRP-labelled (P20-HRP) in the Western blot and was the coating antibody on nitrocellulose in the colloidal gold card; also called P20-scFv-(HIS)6; P20-HRP
B1: the binding result was “binds”.
